This is an account of results in PMC549075.

The target in the test is Lamb brain tubulin (lamb).

B1: HIV-1 Tat protein, Oyi strain (natural protein)
chain: MEPVDPRLEPWKHPGSQPKTASNNCYCKRCCLHCQVCFTKKGLGISYGRKKRRQRRRAPQDSKTHQVSLSKQPASQPRGDPTGPKESKKKVERETETDPED
As to B1, the ΔOD 350 nm plateau of 15 μM tubulin at 37°C with 8 μM compound is 0.8 ΔOD 350 nm and the ΔOD ratio (plateau with 8 μM compound divided by plateau of tubulin alone) came to 2.63.
